Assay results: patent publication US20230194547A1

The substances below were run against human FcRn beta-2-microglobulin complex, biotinylated, coupled to streptavidin Sepharose (human) (UniProt P55899) (assay: FcRn affinity chromatography, pH gradient 5.5 to 8.8; dye-labelled antibody).
human FcRn beta-2-microglobulin complex, biotinylated, coupled to streptavidin Sepharose (human), sequence (P55899 24-297 limits assumed, chain 1 of 2): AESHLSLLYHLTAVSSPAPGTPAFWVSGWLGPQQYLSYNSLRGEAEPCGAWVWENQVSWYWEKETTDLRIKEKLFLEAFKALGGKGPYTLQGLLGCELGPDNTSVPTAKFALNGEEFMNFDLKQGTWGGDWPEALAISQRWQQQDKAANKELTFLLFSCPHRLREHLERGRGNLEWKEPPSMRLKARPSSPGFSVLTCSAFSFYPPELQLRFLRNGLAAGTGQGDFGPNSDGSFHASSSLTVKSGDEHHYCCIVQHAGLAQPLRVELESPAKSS
human FcRn beta-2-microglobulin complex, biotinylated, coupled to streptavidin Sepharose (human), sequence (P61769 21-119 limits assumed, chain 2 of 2, further chain): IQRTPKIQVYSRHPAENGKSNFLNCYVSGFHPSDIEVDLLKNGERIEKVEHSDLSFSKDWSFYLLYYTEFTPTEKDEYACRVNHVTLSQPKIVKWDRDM

Ixekizumab, labelled with pHAb dye (antibody), sequence (HC): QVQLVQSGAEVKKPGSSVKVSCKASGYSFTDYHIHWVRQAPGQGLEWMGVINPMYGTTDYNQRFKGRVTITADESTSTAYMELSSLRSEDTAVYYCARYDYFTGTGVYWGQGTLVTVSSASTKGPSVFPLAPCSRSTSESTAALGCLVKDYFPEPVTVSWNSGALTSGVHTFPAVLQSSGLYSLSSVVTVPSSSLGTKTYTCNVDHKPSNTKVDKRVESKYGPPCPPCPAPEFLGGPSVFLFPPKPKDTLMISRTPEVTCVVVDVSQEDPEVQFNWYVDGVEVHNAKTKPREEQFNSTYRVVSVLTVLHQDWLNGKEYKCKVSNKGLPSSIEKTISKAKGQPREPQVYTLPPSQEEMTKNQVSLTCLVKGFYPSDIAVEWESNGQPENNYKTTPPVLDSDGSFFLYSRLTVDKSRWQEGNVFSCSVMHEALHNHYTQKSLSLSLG
Ixekizumab, labelled with pHAb dye (antibody), sequence (LC): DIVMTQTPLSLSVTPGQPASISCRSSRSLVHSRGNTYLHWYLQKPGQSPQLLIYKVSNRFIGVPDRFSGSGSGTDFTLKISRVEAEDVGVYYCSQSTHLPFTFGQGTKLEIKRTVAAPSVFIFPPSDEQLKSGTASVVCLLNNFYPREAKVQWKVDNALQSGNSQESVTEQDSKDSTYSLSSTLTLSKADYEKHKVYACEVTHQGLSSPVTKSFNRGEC
Avelumab (antibody), sequence (HC): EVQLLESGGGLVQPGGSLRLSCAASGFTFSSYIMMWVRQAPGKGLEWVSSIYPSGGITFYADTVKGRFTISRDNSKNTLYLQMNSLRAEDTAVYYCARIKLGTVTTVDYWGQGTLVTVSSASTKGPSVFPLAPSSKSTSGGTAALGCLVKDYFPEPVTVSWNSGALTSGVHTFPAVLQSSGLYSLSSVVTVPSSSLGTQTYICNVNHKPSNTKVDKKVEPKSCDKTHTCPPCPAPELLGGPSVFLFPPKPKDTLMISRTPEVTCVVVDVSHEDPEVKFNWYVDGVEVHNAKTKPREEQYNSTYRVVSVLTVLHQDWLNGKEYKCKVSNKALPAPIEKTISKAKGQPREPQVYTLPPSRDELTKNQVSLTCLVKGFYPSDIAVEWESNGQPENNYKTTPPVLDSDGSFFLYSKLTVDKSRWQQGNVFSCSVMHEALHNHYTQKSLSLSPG
Avelumab (antibody), sequence (LC): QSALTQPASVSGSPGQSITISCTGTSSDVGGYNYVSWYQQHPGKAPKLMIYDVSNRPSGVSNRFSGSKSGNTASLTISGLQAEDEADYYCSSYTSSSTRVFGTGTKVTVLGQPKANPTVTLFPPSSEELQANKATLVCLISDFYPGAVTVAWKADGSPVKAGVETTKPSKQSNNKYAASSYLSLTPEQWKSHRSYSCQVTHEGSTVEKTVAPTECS
Ustekinumab (antibody), sequence (HC): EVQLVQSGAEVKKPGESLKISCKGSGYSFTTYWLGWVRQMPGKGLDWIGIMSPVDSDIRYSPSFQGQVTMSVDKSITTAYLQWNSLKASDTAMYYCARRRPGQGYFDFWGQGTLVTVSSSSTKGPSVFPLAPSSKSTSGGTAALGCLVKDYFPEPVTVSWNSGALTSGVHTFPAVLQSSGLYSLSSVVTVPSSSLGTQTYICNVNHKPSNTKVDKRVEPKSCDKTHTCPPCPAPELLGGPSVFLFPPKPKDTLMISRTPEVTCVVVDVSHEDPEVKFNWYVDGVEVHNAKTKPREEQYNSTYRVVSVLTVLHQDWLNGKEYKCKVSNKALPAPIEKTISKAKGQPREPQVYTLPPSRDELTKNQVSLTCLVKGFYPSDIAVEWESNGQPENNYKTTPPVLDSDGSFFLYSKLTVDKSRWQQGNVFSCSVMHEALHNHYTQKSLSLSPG
Ustekinumab (antibody), sequence (LC): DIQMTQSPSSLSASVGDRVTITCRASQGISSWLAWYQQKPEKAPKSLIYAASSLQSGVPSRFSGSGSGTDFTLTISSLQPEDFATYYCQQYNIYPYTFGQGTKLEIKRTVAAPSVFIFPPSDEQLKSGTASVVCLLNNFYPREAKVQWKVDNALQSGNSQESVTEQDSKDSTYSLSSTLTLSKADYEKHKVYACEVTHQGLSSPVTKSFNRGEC

Q: How did the relative retention time on FcRn affinity column (relative to anti-Her3 antibody standard) turn out when “Ixekizumab, labelled with pHAb dye (antibody)” was run?
A: 1.33

Q: “Palivizumab, labelled with pHAb dye (antibody)” was tested. Which relative retention time on FcRn affinity column (relative to anti-Her3 antibody standard) did it give?
A: 0.28

Q: How did the relative retention time on FcRn affinity column (relative to anti-Her3 antibody standard) turn out when “Reslizumab, labelled with pHAb dye (antibody)” was run?
A: 0.41

Q: How did the relative retention time on FcRn affinity column (relative to anti-Her3 antibody standard) turn out when “Ustekinumab, labelled with pHAb dye (antibody)” was run?
A: 0.41

Q: Which relative retention time on FcRn affinity column (relative to anti-Her3 antibody standard) does the source give for “Avelumab, labelled with pHAb dye (antibody)” here?
A: 1.25

Q: “Ofatumumab, labelled with pHAb dye (antibody)” was tested. Which relative retention time on FcRn affinity column (relative to anti-Her3 antibody standard) did it give?
A: 0.67

Q: For “Nivolumab, labelled with pHAb dye (antibody)”, which relative retention time on FcRn affinity column (relative to anti-Her3 antibody standard) is on record?
A: 0.39

Q: For “Motavizumab WT, labelled with pHAb dye (antibody)”, which relative retention time on FcRn affinity column (relative to anti-Her3 antibody standard) is on record?
A: 0.42

Q: How did the relative retention time on FcRn affinity column (relative to anti-Her3 antibody standard) turn out when “Motavizumab-YTE, labelled with pHAb dye (antibody)” was run?
A: 4.88

Q: Which relative retention time on FcRn affinity column (relative to anti-Her3 antibody standard) does the source give for “Adalimumab, labelled with pHAb dye (antibody)” here?
A: 0.84

These substances were tested against human FcRn beta-2-microglobulin complex, biotinylated, coupled to streptavidin Sepharose (human) (UniProt P55899) (assay: FcRn affinity chromatography, pH gradient 5.5 to 8.8; unlabelled antibody).

Q: Which relative retention time on FcRn affinity column (relative to anti-Her3 antibody standard) does the source give for Palivizumab (antibody) here?
A: 0.31

Q: How did the relative retention time on FcRn affinity column (relative to anti-Her3 antibody standard) turn out when Adalimumab (antibody) was run?
A: 0.93

Q: For Motavizumab-YTE (antibody), which relative retention time on FcRn affinity column (relative to anti-Her3 antibody standard) is on record?
A: 4.52

Q: With Reslizumab (antibody) as the substance, how does the relative retention time on FcRn affinity column (relative to anti-Her3 antibody standard) read?
A: 0.5

Q: Avelumab (antibody) was tested. Which relative retention time on FcRn affinity column (relative to anti-Her3 antibody standard) did it give?
A: 1.27

Q: Which relative retention time on FcRn affinity column (relative to anti-Her3 antibody standard) does the source give for Nivolumab (antibody) here?
A: 0.49

Q: For Motavizumab WT (antibody), which relative retention time on FcRn affinity column (relative to anti-Her3 antibody standard) is on record?
A: 0.5

Q: Which relative retention time on FcRn affinity column (relative to anti-Her3 antibody standard) does the source give for Ofatumumab (antibody) here?
A: 0.72

Q: How did the relative retention time on FcRn affinity column (relative to anti-Her3 antibody standard) turn out when Ustekinumab (antibody) was run?
A: 0.48
